In patent publication US20160264649A1:

Key:
Assay in all cases: cell-based or functional assay
[1] = target: HIV-1 Env of isolate 92TH021 (subtype AE) (HIV-1)
[2] = target: HIV-1 Env of isolate 92UG031 (subtype A) (HIV-1)
[3] = target: HIV-1 Env of isolate 92UG037 (subtype A) (HIV-1)
[4] = target: HIV-1 Env of isolate 92UG114 (subtype D) (HIV-1)
[5] = target: HIV-1 Env of isolate 92WR009 (subtype A) (HIV-1)
[6] = target: HIV-1 Env of isolate 92WR020 (subtype A) (HIV-1)
[7] = target: HIV-1 Env of isolate 92WR021 (subtype A) (HIV-1)
[8] = target: HIV-1 Env of isolate 92WR024 (subtype A) (HIV-1)
[9] = target: HIV-1 Env of isolate 92WR026 (subtype A) (HIV-1)
[10] = target: HIV-1 Env of isolate 93UG077 (subtype A) (HIV-1)
[11] = target: HIV-1 Env of isolate 93WR029 (subtype A) (HIV-1)
[12] = target: HIV-1 Env of isolate 94 KE 105 (subtype AC) (HIV-1)
[13] = target: HIV-1 Env of isolate 94UG103 (subtype A) (HIV-1)
[14] = target: HIV-1 Env of isolate CMU02 (subtype AE) (HIV-1)
[15] = target: HIV-1 Env of isolate MGRM-AE-001 (subtype AE) (HIV-1)
[16] = target: HIV-1 Env of isolate MGRM-AE-002 (subtype AE) (HIV-1)
[17] = target: HIV-1 Env of isolate MGRM-AE-003 (subtype AE) (HIV-1)
[18] = target: HIV-1 Env of isolate MGRM-AE-004 (subtype AE) (HIV-1)
[19] = target: HIV-1 Env of isolate MGRM-AE-005 (subtype AE) (HIV-1)
[20] = target: HIV-1 Env of isolate MGRM-AE-006 (subtype AE) (HIV-1)
[21] = target: HIV-1 Env of isolate MGRM-AE-007 (subtype AE) (HIV-1)
[22] = target: HIV-1 Env of isolate MGRM-AE-008 (subtype AE) (HIV-1)
[23] = target: HIV-1 Env of isolate MGRM-D-001 (subtype D) (HIV-1)
[24] = target: HIV-1 Env of isolate MGRM-D-002 (subtype D) (HIV-1)
[25] = target: HIV-1 Env of isolate MGRM-D-003 (subtype D) (HIV-1)
[26] = target: HIV-1 Env of isolate MGRM-D-004 (subtype D) (HIV-1)
[27] = target: HIV-1 Env of isolate MGRM-D-005 (subtype D) (HIV-1)
[28] = target: HIV-1 Env of isolate MGRM-D-008 (subtype D) (HIV-1)
[29] = target: HIV-1 Env of isolate MGRM-D-011 (subtype D) (HIV-1)
[30] = target: HIV-1 Env of isolate MGRM-D-012 (subtype D) (HIV-1)
[31] = target: HIV-1 Env of isolate MGRM-D-013 (subtype D) (HIV-1)
[32] = target: HIV-1 Env of isolate MGRM-D-014 (subtype D) (HIV-1)
[33] = target: HIV-1 Env of isolate MGRM-D-016 (subtype D) (HIV-1)
[34] = target: HIV-1 Env of isolate MGRM-D-018 (subtype D) (HIV-1)
[35] = target: HIV-1 Env of isolate MGRM-D-019 (subtype D) (HIV-1)
[36] = target: HIV-1 Env of isolate MGRM-D-020 (subtype D) (HIV-1)
[37] = target: HIV-1 Env of isolate MGRM-D-021 (subtype D) (HIV-1)
[38] = target: HIV-1 Env of isolate MGRM-D-022 (subtype D) (HIV-1)
[39] = target: HIV-1 Env of isolate MGRM-D-024 (subtype D) (HIV-1)
[40] = target: HIV-1 Env of isolate MGRM-D-026 (subtype D) (HIV-1)
[41] = target: HIV-1 Env of isolate MGRM-D-028 (subtype D) (HIV-1)
[42] = target: HIV-1 Env of isolate MGRM-D-029 (subtype D) (HIV-1)
[43] = target: HIV-1 Env of isolate MGRM-F1-004 (subtype F) (HIV-1)
[44] = target: HIV-1 Env of isolate MGRM-F1-006 (subtype F) (HIV-1)
[45] = target: HIV-1 Env of isolate MGRM-F1-008 (subtype F) (HIV-1)
[46] = target: HIV-1 Env of isolate MGRM-F1-010 (subtype F) (HIV-1)
[47] = target: HIV-1 Env of isolate MGRM-F1-012 (subtype F) (HIV-1)
[48] = target: HIV-1 Env of isolate MGRM-F1-013 (subtype F) (HIV-1)
[49] = target: HIV-1 Env of isolate MGRM-F1-014 (subtype F) (HIV-1)
[50] = target: HIV-1 Env of isolate MGRM-F1-015 (subtype F) (HIV-1)
[51] = target: HIV-1 Env of isolate MGRM-F1-016 (subtype F) (HIV-1)
[52] = target: HIV-1 Env of isolate MGRM-F1-017 (subtype F) (HIV-1)
[53] = target: HIV-1 Env of isolate MGRM-F1-018 (subtype F) (HIV-1)
[54] = target: HIV-1 Env of isolate MGRM-F1-020 (subtype F) (HIV-1)
[55] = target: HIV-1 Env of isolate MGRM-F1-021 (subtype F) (HIV-1)
[56] = target: HIV-1 Env of isolate MGRM-F1-022 (subtype F) (HIV-1)
[57] = target: HIV-1 Env of isolate MGRM-F1-023 (subtype F) (HIV-1)
[58] = target: HIV-1 Env of isolate VLGCA1 (subtype A) (HIV-1)

Sequence of PGT-142 (4995_E20) (antibody) (VH): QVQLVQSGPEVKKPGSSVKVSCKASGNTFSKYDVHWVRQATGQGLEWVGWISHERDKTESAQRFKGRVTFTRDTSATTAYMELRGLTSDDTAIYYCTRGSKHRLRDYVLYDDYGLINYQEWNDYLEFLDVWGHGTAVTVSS
Sequence of PGT-142 (4995_E20) (antibody) (VL): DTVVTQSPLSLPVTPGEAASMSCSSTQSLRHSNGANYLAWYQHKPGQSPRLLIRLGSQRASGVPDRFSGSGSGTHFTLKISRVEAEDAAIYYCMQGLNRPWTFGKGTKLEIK

PGT-142 (4995_E20) (antibody)
IC50 (pseudovirus neutralization) [1]: 0.002 µg/mL | IC50 (pseudovirus neutralization) [2]: 0.05 µg/mL | IC50 (pseudovirus neutralization) [3]: 0.557 µg/mL | IC50 (pseudovirus neutralization) [4]: > 50 µg/mL | IC50 (pseudovirus neutralization) [5]: 0.006 µg/mL | IC50 (pseudovirus neutralization) [6]: 31.5 µg/mL | IC50 (pseudovirus neutralization) [7]: > 50 µg/mL | IC50 (pseudovirus neutralization) [8]: 0.069 µg/mL | IC50 (pseudovirus neutralization) [9]: 1.78 µg/mL | IC50 (pseudovirus neutralization) [10]: > 50 µg/mL | IC50 (pseudovirus neutralization) [11]: 0.014 µg/mL | IC50 (pseudovirus neutralization) [12]: 0.19 µg/mL | IC50 (pseudovirus neutralization) [13]: > 50 µg/mL | IC50 (pseudovirus neutralization) [14]: > 50 µg/mL | IC50 (pseudovirus neutralization) [15]: > 50 µg/mL | IC50 (pseudovirus neutralization) [16]: > 50 µg/mL | IC50 (pseudovirus neutralization) [17]: > 50 µg/mL | IC50 (pseudovirus neutralization) [18]: 0.001 µg/mL | IC50 (pseudovirus neutralization) [19]: > 50 µg/mL | IC50 (pseudovirus neutralization) [20]: > 50 µg/mL | IC50 (pseudovirus neutralization) [21]: 6.7 µg/mL | IC50 (pseudovirus neutralization) [22]: 0.08 µg/mL | IC50 (pseudovirus neutralization) [23]: > 50 µg/mL | IC50 (pseudovirus neutralization) [24]: > 50 µg/mL | IC50 (pseudovirus neutralization) [25]: > 50 µg/mL | IC50 (pseudovirus neutralization) [26]: > 50 µg/mL | IC50 (pseudovirus neutralization) [27]: 1.15 µg/mL | IC50 (pseudovirus neutralization) [28]: 0.174 µg/mL | IC50 (pseudovirus neutralization) [29]: > 50 µg/mL | IC50 (pseudovirus neutralization) [30]: > 50 µg/mL | IC50 (pseudovirus neutralization) [31]: 0.221 µg/mL | IC50 (pseudovirus neutralization) [32]: 0.005 µg/mL | IC50 (pseudovirus neutralization) [33]: > 50 µg/mL | IC50 (pseudovirus neutralization) [34]: > 50 µg/mL | IC50 (pseudovirus neutralization) [35]: 0.155 µg/mL | IC50 (pseudovirus neutralization) [36]: > 50 µg/mL | IC50 (pseudovirus neutralization) [37]: > 50 µg/mL | IC50 (pseudovirus neutralization) [38]: > 50 µg/mL | IC50 (pseudovirus neutralization) [39]: > 50 µg/mL | IC50 (pseudovirus neutralization) [40]: 12.5 µg/mL | IC50 (pseudovirus neutralization) [41]: > 50 µg/mL | IC50 (pseudovirus neutralization) [42]: 0.192 µg/mL | IC50 (pseudovirus neutralization) [43]: 0.013 µg/mL | IC50 (pseudovirus neutralization) [44]: 12.9 µg/mL | IC50 (pseudovirus neutralization) [45]: 0.124 µg/mL | IC50 (pseudovirus neutralization) [46]: > 50 µg/mL | IC50 (pseudovirus neutralization) [47]: > 50 µg/mL | IC50 (pseudovirus neutralization) [48]: 0.023 µg/mL | IC50 (pseudovirus neutralization) [49]: 0.001 µg/mL | IC50 (pseudovirus neutralization) [50]: > 50 µg/mL | IC50 (pseudovirus neutralization) [51]: > 50 µg/mL | IC50 (pseudovirus neutralization) [52]: 23.5 µg/mL | IC50 (pseudovirus neutralization) [53]: 0.404 µg/mL | IC50 (pseudovirus neutralization) [54]: 0.824 µg/mL | IC50 (pseudovirus neutralization) [55]: > 50 µg/mL | IC50 (pseudovirus neutralization) [56]: 0.04 µg/mL | IC50 (pseudovirus neutralization) [57]: 0.602 µg/mL | IC50 (pseudovirus neutralization) [58]: 2.75 µg/mL
